± gives the standard deviation of the averaged measurements.
system: Saccharomyces cerevisiae; experiment: protein stability index of tFT-peptide fusion (C-terminal peptide) (PSI (0-1 scale)); higher = more stable (slower turnover); conditions: genetic background: wild type; temperature: 30 C
Procedure: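 Multiplexed protein stability (MPS) profiling in S. cerevisiae. Random 12-aa peptides (tFT-X12 library) are fused to the C-terminus of a sfGFP-mCherry tandem fluorescent timer, after mCherry and a GGGS linker. Cells are FACS-sorted into 8 mCherry/sfGFP bins and deep-sequenced. The protein stability index (PSI) is the read-weighted bin average, scaled from 0 (unstable) to 1 (stable). Only peptides with >10 reads are reported; cells were grown at 30 °C in SC-His with glucose.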
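Further: PSI is a weighted mean of sequencing reads over stability bins, variants kept only with over 10 reads, mCherry proximal and sfGFP distal, peptide attached via GGGS linker.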

Sequence | protein stability index
EFERWCGLGRFG | 0.744 ± 0.096
EFFVLVHLVDPK | 0.638 ± 0.041
EFVFLLSNTFNS | 0.749 ± 0.03
EGAGGVVVEGLG | 0.68 ± 0.028
EGAVGMSGSLGV | 0.668 ± 0.063
EGCGLQRGMGVL | 0.681 ± 0.0096
EGDACCGVDGKR | 0.663 ± 0.13
EGGETDRSLMVV | 0.66 ± 0.014
EGGGWGVGSEVG | 0.694 ± 0.035
EGGMLNAVRPRS | 0.663 ± 0.048
EGGRFTALSSTS | 0.689 ± 0.039
EGGRGYGRGRYG | 0.685 ± 0.051
EGGVERIHKPSS | 0.654 ± 0.061
EGKRGKTGVRRI | 0.743 ± 0.055
EGLRLWGRCCWG | 0.74 ± 0.048
EGPLVRGSGVDV | 0.637 ± 0.043
EGQVGVGWGWVR | 0.786 ± 0.12
EGRRCQGGVWRE | 0.6818 ± 0.0061
EGTIDSGRHSLK | 0.752 ± 0.15
EGTKEKGEKRRR | 0.666 ± 0.065
EGTTRDGERCRT | 0.696 ± 0.0056
EGVSGVSLFRVL | 0.661 ± 0.051
EHCGRGMGSGAA | 0.673 ± 0.012
EHFGFYFIFNLY | 0.58 ± 0.034
EIEYVEPSIPET | 0.702 ± 0.046

Sequence | protein stability index
EIGWEGLAGRGG | 0.754 ± 0.029
EIKKKNPSTTRR | 0.663 ± 0.01
EISKVRGAVDRK | 0.689 ± 0.033
EITLFELWPPGS | 0.78 ± 0.03
EKCCVNSASSFG | 0.646 ± 0.0098
EKKKNTQGIKKK | 0.685 ± 0.011
EKKKRRASREDS | 0.6744 ± 0.0039
EKKKSCIMILRK | 0.701 ± 0.039
EKKKSKGRRKLM | 0.705 ± 0.081
EKKRKKIYGNLK | 0.683 ± 0.13
EKRDKREVRPGK | 0.6626 ± 0.0055
EKRKEKKKRGKE | 0.797 ± 0.16
EKRQNLKPMRTV | 0.686 ± 0.026
EKSKNQKPHAAR | 0.633 ± 0.0088
EKTKEEKKLRTK | 0.647 ± 0.046
EKTKEKKAKKYG | 0.694 ± 0.027
EKYASINSSKPP | 0.671 ± 0.068
EKYSSHPMDTRQ | 0.653 ± 0.013
ELCFFISLVPDF | 0.642 ± 0.007
ELEIKGRRQIKT | 0.666 ± 0.055
ELLKQRTRKRQK | 0.693 ± 0.021
ELNENKKKKEHL | 0.714 ± 0.12
ELRADRTYTGIV | 0.752 ± 0.054
ELTKNRQTVIIS | 0.635 ± 0.035
ELTPCGNNDHAI | 0.644 ± 0.0087

Sequence | protein stability index
ELVISTGRLQKS | 0.637 ± 0.019
EMTWGSIWPERH | 0.731 ± 0.05
ENCDSAEPGTRV | 0.676 ± 0.033
ENHPATICGFYR | 0.767 ± 0.087
ENPSTIDLSARS | 0.656 ± 0.04
ENVGRASDHSLS | 0.679 ± 0.097
EPATEGDSREHW | 0.708 ± 0.024
EPGQWRAASYGF | 0.71 ± 0.024
EPNRIAKYYKKY | 0.686 ± 0.16
EPPELSISALGF | 0.6865 ± 0.0021
EPTGEPKQKKEG | 0.707 ± 0.035
EQGLRRRVFFEV | 0.644 ± 0.013
EQHTKNDQNNEP | 0.664 ± 0.028
ERANMSRGNQTE | 0.687 ± 0.025
EREKKNKKGGCQ | 0.69 ± 0.018
ERGALNRKDTRG | 0.662 ± 0.023
ERGEEGGRERRR | 0.7 ± 0.0073
ERGSGSVPGGRD | 0.649 ± 0.035
ERKEERGREGKR | 0.628 ± 0.031
ERKEPRIQQQTL | 0.67 ± 0.075
ERLSEYYPLIKC | 0.602 ± 0.044
ERMVENNVKGRK | 0.6811 ± 0.0027
ERRKGGEKGKKK | 0.691 ± 0.047
ERSDRLWEVSKG | 0.685 ± 0.035
ERVQTRTTANRD | 0.639 ± 0.059

Sequence | protein stability index
ERWRVYERYARG | 0.692 ± 0.058
ESDLNDLGQNLN | 0.674 ± 0.058
ESGGGGGGGRER | 0.5726 ± 0.0016
ESIGCINIRMRG | 0.694 ± 0.013
ESRARCGEQAIY | 0.641 ± 0.066
ESTNKKKEKKNR | 0.661 ± 0.04
ESVCFRPKCVCK | 0.5929 ± 0.0046
ESVKVTIAKVMK | 0.708 ± 0.016
ETRSDAVVVFTK | 0.694 ± 0.021
ETVLQVRRRVVR | 0.6553 ± 0.0028
EVASMSCPVFLF | 0.652 ± 0.03
EVCAGDDIRYLV | 0.645 ± 0.026
EVCFVWSLGEVL | 0.623 ± 0.019
EVCGSGCGCGLC | 0.74 ± 0.11
EVDGISTRAAVC | 0.63 ± 0.083
EVDKKYRNRKRK | 0.744 ± 0.019
EVFVVHLLGEAS | 0.574 ± 0.064
EVGGGVGGRRLM | 0.636 ± 0.0099
EVGGSVGTIVGS | 0.702 ± 0.11
EVLAVKLYSGIA | 0.648 ± 0.044
EVLQGNHHPRPE | 0.716 ± 0.019
EVSGRCRRPDDQ | 0.679 ± 0.041
EVVCLGKTTLKR | 0.692 ± 0.041
